Where no end group is shown, it is not given here. [ ]: non-standard residue; d: D form. pY = N[C@@H](Cc1ccc(OP(=O)(O)O)cc1)C(=O)O
T1: Full-length STAT1 protein (unphosphorylated, U-STAT1) (UniProt P42224 1-750)
T1 construct: also called STAT1 FL
T1 sequence (looked up): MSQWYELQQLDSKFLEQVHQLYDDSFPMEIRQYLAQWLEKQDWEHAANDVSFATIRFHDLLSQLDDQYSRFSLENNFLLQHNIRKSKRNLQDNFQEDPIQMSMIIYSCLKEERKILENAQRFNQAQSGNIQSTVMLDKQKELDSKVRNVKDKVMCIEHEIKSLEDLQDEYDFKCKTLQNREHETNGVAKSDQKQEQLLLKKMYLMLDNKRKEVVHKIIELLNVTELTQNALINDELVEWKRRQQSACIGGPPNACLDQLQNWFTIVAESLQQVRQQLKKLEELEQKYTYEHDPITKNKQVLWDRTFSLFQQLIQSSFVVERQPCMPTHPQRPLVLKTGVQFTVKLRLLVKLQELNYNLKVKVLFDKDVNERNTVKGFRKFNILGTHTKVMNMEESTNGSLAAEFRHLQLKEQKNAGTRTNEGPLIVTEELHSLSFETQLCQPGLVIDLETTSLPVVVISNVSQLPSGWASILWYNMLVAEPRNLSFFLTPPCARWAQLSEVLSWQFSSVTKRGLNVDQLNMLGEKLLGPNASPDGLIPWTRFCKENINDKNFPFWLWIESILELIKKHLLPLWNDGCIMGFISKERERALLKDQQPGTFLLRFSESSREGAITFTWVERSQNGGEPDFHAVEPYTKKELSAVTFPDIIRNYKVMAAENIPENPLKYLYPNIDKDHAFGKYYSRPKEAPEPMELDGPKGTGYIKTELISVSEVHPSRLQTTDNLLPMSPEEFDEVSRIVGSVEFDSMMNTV

T2: Full-length STAT1 protein (unphosphorylated) (human, UniProt P42224 1-750)
T2 construct: also called U-STAT1; pEXP-nHis-STAT1
T2 sequence (looked up): T1 sequence (looked up)

B1: pIFNGR1 5-mer peptide (Ac-pYDKPH-NH2) (peptide)
peptide: Ac-[pY]DKPH-NH2
SMILES: CC(=O)N[C@@H](Cc1ccc(OP(=O)(O)O)cc1)C(=O)N[C@@H](CC(=O)O)C(=O)N[C@@H](CCCCN)C(=O)N1CCC[C@H]1C(=O)N[C@@H](Cc1c[nH]cn1)C(N)=O
notes: also called pIFNGR 5-mer
B2: GB1-018 (natural protein)
chain: MSSKGGSSGGMWSVFIHGHDGSNKGSKTYTSGGGGMWGGGSSSGVKSGVNGGVKSGTGKI

Legend:
Settings in all cases: both partners purified
[1] = target: T1, Full-length STAT1 protein …; assay: ITC
[2] = target: T2, Full-length STAT1 protein …; assay: ITC
[3] = target: T2, Full-length STAT1 protein …; assay: fluorescence polarisation

Row | Binder | stoichiometry N [1] | Kd [2] [nM] | IC50 [3] [nM] | stoichiometry N [2]
1 | MWSVFIHGHDGSNKGSK (domain or fragment) [GB1-018^T3 (018^T2 without the C-terminal 28-TYTS-31, fused to GB1)] | 1 | – | – | –
2 | MWSVFIHGHDGSNKGSKTYTS (domain or fragment) [GB1-018^T2 (minimal fragment of 018, aa 11-31, fused to GB1)] | 1.01 | – | – | –
3 | Ac-MWSVFIHGHDGSNKGSKTYTS-NH2 [018 21-mer peptide (Ac-MWSVFIHGHDGSNKGSKTYTS-NH2)] | 1.09 | – | – | –
4 | MWSVFIHGHDGSNKGSK (domain or fragment) [GB1-018^T3] | – | > 10000 | 17800 | –
5 | MWSVFIHGHDGSNKGSKTYTS (domain or fragment) [GB1-018^T2] | – | 235 | 930 | –
6 | MWSVFIHGHDGSNKGSKTYTS [018 21-mer peptide] | – | 321 | – | –
7 | MWSVFIHGHDGSNKGSKTYTS (also: phospho, position not given here) [018 phospho 21-mer peptide] | – | 174 | – | –
8 | Ac-MWSVFIHGHDGSNKGSKT[pY]TS-NH2 [018 phospho 21-mer peptide (Ac-MWSVFIHGHDGSNKGSKT(pY)TS-NH2)] | 1.12 | – | – | –
9 | B1 | 0.708 | – | – | –
10 | B2 | – | 291 | 1260 | 1.02
